Data from the supplement of paper PMC12764529.
± gives the half width of the 95% confidence interval.

Experiments:
[1] = folding stability dG unfold from chymotrypsin proteolysis; higher = more stable
Procedure: (§1)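 Folding stability of de novo designed mini-proteins (<80 aa, no Cys; designed by TrROS, TrMRF, ProteinMPNN and the joint model) was measured by cDNA display proteolysis with trypsin and chymotrypsin. Each protease was used at 11 concentrations in a threefold dilution series plus a no-protease condition. K50 was inferred by Bayesian fitting of sequencing counts, and dG unfold was derived against a sequence-predicted unfolded-state K50 (Tsuboyama et al. method). Sequences shown include variable-length N-terminal GS-type padding (SAGGSAGG...) inside a display construct carrying a PA tag. Rows were kept only if the AF2 dimer inter-PAE was >15, to exclude likely homo-oligomers.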

[2] = folding stability dG unfold (combined trypsin and chymotrypsin); higher = more stable
Procedure: as §1

| Sequence | folding stability dG unfold [1] | folding stability dG unfold [2] |
| --- | --- | --- |
| SAGGSAMNVKSKETVEELFSESPEKVSIKKTTTYTFPNSKTVEITYYKPDGKKIATKNLPLSEYSSSAGGSA [r15_755_JUSTAS] | -0.238 ± 0.59 kcal/mol |  |
| SAGGSAGGSAGPEEFEVLEMEAELNPETGEITVRFGSPEGEEITYTVTRPGELENLKLYASAGGSAGGSAGG [r11_711_TrMRF] | -0.136 ± 0.39 kcal/mol |  |
| SAGGSAGGSYLVKIEWRHNGKPIEQTIPIDPGELPLEDIASNFPGYPWKIKVMDPNGEERPFTSAGGSAGGS [r12_540_TrROS] | -0.0033 ± 0.33 kcal/mol |  |
| SAGGESIVIPVKTLEEAKKVAEEIKEKFEKLGYKVEIFEEPETGRIIVKVTKKDKGTVSTTIITFPVPSAGG [r13_641_JUSTAS] | 4.21 ± 0.76 kcal/mol |  |
| SAGGELLEDLNIKEIEVTEVKTYRNPENGMRMYEPTLTIKNPDGEKIKFTIEHMYDPGNPKPMIHIMSAGGS [r8_422_TrROS] | -0.212 ± 0.52 kcal/mol |  |
| SAMKIYVAPGPFTVTARPALPGGEEITITTPITPEQVADPAFLEALVQALEDAGVPATYSILPAGVALPSAG [r14_60_JUSTAS] | 0.597 ± 0.22 kcal/mol |  |
| SAGGMPPNATLSGKRVDFKPVPHPDGKTLLKIYYNGKPIEEIEVPPGEAEKLIAELPENTNIVTLPESAGGS [r8_41_JUSTAS] | -0.33 ± 0.58 kcal/mol |  |
| SAGGKPMIHINMEENPNGNPYMRVQVMRMDPKNNGWKPVEEVRFDSPQDMRDEAKELADKEGVYLMISAGGS [r16_512_TrROS] |  | < -1 kcal/mol |
| SAGGSMITKETFPGSEVLTYPEKGIRVELDDKNVTVYDIKPLPGKGEPVVLSSKTISKEELEKLIKSSAGGS [r8_174_JUSTAS] |  | < -1 kcal/mol |
| SAGGSAGGSAGKIRIDARPNGNWRAHYPGGKEHEFNSPDDIKDELEKKFPNFDIIEIEPWSAGGSAGGSAGG [r11_806_TrROS] |  | < -1 kcal/mol |
| SPEGKDEKGVSYPIIVEKPDPKITPEKIKKAIEEAGGKVTKIVRPKKGKLLVVDVEVTDPEKAIEAIKKDSA [r9_1154_TrMRF] |  | < -1 kcal/mol |
| SAGGSAGGSAGGRGVLLVFRLDGEVRPTPDGEPVLELTDLEVEEREVTVTRDADGVLHAGSAGGSAGGSAGG [r11_381_TrMRF] |  | < -1 kcal/mol |
| SAGGSAGGSAGGPNPRIIPLTFPVKDKEAVILLPPGVKPASIEVDPEDGRIRVNAVDPLSAGGSAGGSAGGS [r10_906_TrMRF] |  | < -1 kcal/mol |
| SAGGSAGGSAGGSGELELTVVSPLPDGTVKVTRYRVELPEDGLEITEVETEEVPPEEAGSAGGSAGGSAGGS [r4_389_TrMRF] |  | < -1 kcal/mol |
| SAGGTIKEIFEKNGAEIETNPGQGVVTVEMRKPKRDDNGMPKPKPKGKHEIKVPGGDPEQALDNLLKHSAGG [r13_924_TrROS] |  | < -1 kcal/mol |
| SAGGSAGGSAGGSMYRIEIKMPNNPRTIWVPPDELPDDDLEEIAKENFPNIDKIKVWRWSAGGSAGGSAGGS [r4_235_TrROS] |  | < -1 kcal/mol |
| SAGGSMTPAELANEIAEKLHEELPPDKSVTITMRFGSGPVTLTIPPDARVDVPEDRPLEVDEISIGSAGGSA [r2_391_JUSTAS] |  | < -1 kcal/mol |
| SAPPLPPDAVVETESEPVGVDPTENGTLTYYRRTVRVTLPDGSLTLESLVFRDPATGSSTSSVLRETALSAG [r14_293_JUSTAS] |  | < -1 kcal/mol |
| SAGGSAGGSAGGSPFTIRNPNGMQVRIDDFDPEEGKVKIEIEMPNKPVEYPIPLDDIIFSAGGSAGGSAGGS [r4_110_TrROS] |  | < -1 kcal/mol |

| Sequence | folding stability dG unfold [1] | folding stability dG unfold [2] |
| --- | --- | --- |
| SAGGSAGGSAGMNKKVVATFTDPNSDTTTTLVGPEEAFKSQFPPETASYSLTTVPEEALLSAGGSAGGSAGG [r11_334_JUSTAS] |  | < -1 kcal/mol |
| SAGGSAGGSAGGPERLVLASFIPGPRLLHVVEVSLDGVGASISPSVFSIHPDRPDEIEPVSAGGSAGGSAGG [r7_866_TrMRF] |  | < -1 kcal/mol |
| SAGGSAGGSAGPKWKTINFPIDLKPGQSAKEIAKKFAEANPDMEIDGFNPERGWASITVPSAGGSAGGSAGG [r11_465_TrROS] |  | < -1 kcal/mol |
| SAGGPNFEIEPEWDPDNGIVKETIKVPPGMTPEAINDALEIEFPDGMEVQIKPIKDGTIKVYMRMPKSAGGS [r8_255_TrROS] |  | < -1 kcal/mol |
| SAGGSAGGSAGNIEVNGDRIKIRFEGGHEFTFPNLPPGKPIEFKFNNQPFRIRDVEVEPPSAGGSAGGSAGG [r11_16_TrROS] |  | < -1 kcal/mol |
| SAGGSAGGSAGKTIMIRDPEALKKLPENQKIRIPDGKPFKIKKVEYVEENGWHRFTIKPESAGGSAGGSAGG [r11_316_TrROS] |  | < -1 kcal/mol |
| SAGGSAGGSAGGEKTIFIPPDNPEKLADEAQKKGLTVEREPNSWLKVNGKKIRIIIMPPSAGGSAGGSAGGS [r10_930_TrROS] |  | < -1 kcal/mol |
| SAGGPGKYRVIFYPKDTDKPIEADVPASHIKKFDPKNNFIEISAPPGPTLTIPDPDKVKKVIIEPIPSAGGS [r8_111_TrMRF] |  | < -1 kcal/mol |
| SAGGPPKIKITDIRPNKGHMRYKIKDPNKEVEIHMHGNSMHIEYPDGKEKTFDGPGSFEDAAKRIIEKSAGG [r13_98_TrROS] |  | < -1 kcal/mol |
| SAGSELLEKFPNVKVEEYEEEIEFSPEKKEEKEEVDETDGNTITYKKIEVLPEGKAKVKIYTAKLPEVSAGG [r19_125_JUSTAS] |  | < -1 kcal/mol |
| SAGGSAGGSANFRILVDPPTNKIWIFDPPGYVYKIKVDPKEGKMKHEPVPIPPDDLPPNAFKSAGGSAGGSA [r18_59_TrROS] |  | < -1 kcal/mol |
| SAGGSAGGSAPMRMIPFRLPAPPGETIEIKFPNGKKHNISVEPHPDGWFHIMVNGGMIWIPASAGGSAGGSA [r18_372_TrROS] |  | < -1 kcal/mol |
| SMPTTVLGSSPSVLPDGSVRYPVAVRRYPEYGVLVEETVTYFPGSGKFVPERRVEIPPDNPAALEWVRRESA [r9_980_JUSTAS] |  | < -1 kcal/mol |
| SAGGSAGGSAGGMKVVFNIHRPDSDEVLTVDDMEKLKETSLEELAKKLEEENGYPVEVVLSAGGSAGGSAGG [r7_259_JUSTAS] |  | < -1 kcal/mol |
| SAGGSAGGSAGGMELPNLVPVETVPVGDSTVRLYELPGKPLRVTVTENGDNVTVELEEPPSAGGSAGGSAGG [r7_940_JUSTAS] |  | < -1 kcal/mol |
| SAGGIRMPPGQTQTFKLPGRKIEVHMGPNGPIYIEIENPGNGEPVEVPMRGDMTIDEMADAILDKLGSAGGS [r8_158_TrROS] |  | < -1 kcal/mol |
| SAGWVVIEIPKKEIPINPENVQIQEDNDRRYIFIPGEDADELKDQFPNKDVKIEPMPPEQMDRFMKQLSAGG [r19_271_TrROS] | -0.242 ± 0.55 kcal/mol |  |
| SAGGSAGGSAGGGPGLSVTTTVLVPKDPSTSVLTVPLPPSATVTAVTPETNTVTVRTASSAGGSAGGSAGGS [r10_247_JUSTAS] |  | < -1 kcal/mol |
| SAGGSAGGSAGGSVVPPGAKVKVTLEGEEKVVEADSLSEIGEIKIGDKWVKVKKIEVEGSAGGSAGGSAGGS [r4_214_TrMRF] |  | < -1 kcal/mol |

| Sequence | folding stability dG unfold [1] | folding stability dG unfold [2] |
| --- | --- | --- |
| SGDSIHIPPNDLEYAKRIVKDLLDNGRDTIMMNSPEYKKELKEALPGVKVEPVPPMPPPPPSPEDKDKLNSA [r9_639_TrROS] |  | < -1 kcal/mol |
| SAMEISIDPIEDGPVRVTETYKFPGYTRITVKEIPKELLEKGVPLSELPNVPVLEEEIVEIPPPSPELKSAG [r14_856_JUSTAS] |  | < -1 kcal/mol |
| SAGGSAGGSAKKIEIDPERDPNGMHLVEVTRRDPGNGKKKDIPFNVNPGKMTPEEIKDLAKSAGGSAGGSAG [r3_127_TrROS] |  | < -1 kcal/mol |
| SAGGSAGGSSQEIQKRIQDRLRPRGPNRKPTPLEFTPKNGTITIKWKNPWHRKALKELPGIEPSAGGSAGGS [r12_623_TrROS] |  | < -1 kcal/mol |
| SAGGSAGGSAEEEKTVVEEKVEVKVEVKLKAPPPPEVTVSVELDEETNELKITASAEALKKSAGGSAGGSAG [r3_186_TrROS_Hall] |  | < -1 kcal/mol |
| SAGGMSIRELLKEKGIPIKVENEPTDGRPRMKITIQDNDKPVKIDMPMDDPERMIRDAAKELGLKPISAGGS [r8_226_TrROS] |  | < -1 kcal/mol |
| SAGGSGMAEAEALAAELAAATEKTPLGRTATVSVDTEVRPETGLTLLTVTTTGPGAPTTTPTTLPGRSAGGS [r16_812_JUSTAS] |  | < -1 kcal/mol |
| SAGGVDLSTLPSNSTVTLTEEKVIPVTKGSPKGSGKGYIETTTTTYTAVPPTGTWLSTTTPSISIIESAGGS [r8_486_JUSTAS] |  | < -1 kcal/mol |
| SAGGSAGGSASEIDELLAAGYTVLVKPPDGSEKVIKPGDTASNLDETFNLSPDAEFVIEPKSAGGSAGGSAG [r3_216_JUSTAS] |  | < -1 kcal/mol |
| SAGMVLAPSTTETRLPGLRVRTETVVTTELAPDGRPTDVVAPTTTVTVTPPAPPPVFTEESVAAAFELESAG [r14_442_JUSTAS] |  | < -1 kcal/mol |
| VSPEEKEKLEKLAAEPKPIKRTLEITTVKSEGPVELYVFTKKYFVPGKGEEVGEEVVVVPPEEVEELLAELS [r1_415_JUSTAS] |  | < -1 kcal/mol |
| SAGGSAGGSTVPQSLPDSTATISSGPGGTWTVTFYPDEGSRTLTLPRSVVDASPVPLTELVSSSAGGSAGGS [r20_90_JUSTAS] |  | < -1 kcal/mol |
| SAGGSEEEKAAKEAAEKELPPAEPKPVLTPDGVVTTYYPVTGAVEVTRYERDAAGVPVKVSSTTDPKSAGGS [r16_243_JUSTAS] |  | < -1 kcal/mol |
| SAGGSAGGSAGWIKEALRDMPPGKPRRIPIRNPDGNPIKIRIKVDRDPENGKYEVPIEIVSAGGSAGGSAGG [r11_343_TrROS] |  | < -1 kcal/mol |
| SAGGSAGGSATPTPGDDYVYLTEESPDGRTIRYPETGSTIYIPADVPVNLKVNPVRGPDGVPESAGGSAGGS [r20_105_JUSTAS] |  | < -1 kcal/mol |
| SAGGSAGGSGKKYMIDSPEAMNDMRDAGIPPKKIEPEPYPIPANDNPGFKDMPWPMTMYRVKVSAGGSAGGS [r12_78_TrROS] |  | < -1 kcal/mol |
| SAGGEFKLKREEDPDGERKITLEFPGWPYEVVIPKNAKDLPPGNPIYVRGGGGTRTMPIKDLLPELLNSAGG [r13_97_TrROS] |  | < -1 kcal/mol |
| SAGGSAGGSAMPVVEIGLEMEPYEPEAGGKLMLVPIKDNLLPEHALAAARLLEPLGVVTAPSAGGSAGGSAG [r3_157_TrMRF] |  | < -1 kcal/mol |
| SAGGSAASRVSVEKLPNGTVVTPVEVEVTTYKPYPSYDGTPTTVPVTTRTTRTVTTEGNVVTTEVASAGGSA [r15_883_JUSTAS] |  | < -1 kcal/mol |
